# Laboratory results from US20260035426A1.
# Legend:
# CM1 = target: T1, CM1; test: cell-based or functional assay
# T1 sequence (peptide): MVPSALTASG
# CM4 = target: T2, CM4; test: cell-based or functional assay
# T2 sequence (peptide): MVVLALTASG
# recombinant human MMP2, sequence (P08253 110-660 limits assumed): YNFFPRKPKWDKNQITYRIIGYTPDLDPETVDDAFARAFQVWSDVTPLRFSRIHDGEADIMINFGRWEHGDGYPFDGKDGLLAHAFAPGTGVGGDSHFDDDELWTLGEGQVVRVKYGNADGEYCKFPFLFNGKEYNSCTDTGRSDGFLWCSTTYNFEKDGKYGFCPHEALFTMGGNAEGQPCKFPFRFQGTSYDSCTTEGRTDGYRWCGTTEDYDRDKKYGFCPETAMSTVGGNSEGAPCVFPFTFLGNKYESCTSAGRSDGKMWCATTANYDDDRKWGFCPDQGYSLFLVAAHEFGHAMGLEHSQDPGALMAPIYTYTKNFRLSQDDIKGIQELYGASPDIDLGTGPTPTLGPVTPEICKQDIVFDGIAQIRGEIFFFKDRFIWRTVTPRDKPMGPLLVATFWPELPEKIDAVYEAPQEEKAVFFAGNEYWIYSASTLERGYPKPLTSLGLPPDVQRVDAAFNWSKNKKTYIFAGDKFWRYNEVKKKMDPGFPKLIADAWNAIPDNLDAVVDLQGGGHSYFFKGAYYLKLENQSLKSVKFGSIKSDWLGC
Cleavage efficiency (EC50) (CM1) [µg/mL],Cleavage efficiency (EC50) (CM4) [µg/mL],Substance
0.05,0.2,recombinant human MMP9 (from UniProt P14780 107-707) (enzyme)
0.006,0.15,recombinant human MMP2 (from UniProt P08253 110-660) (enzyme)
